For assay [1], the target named is T1, LILRB4 on LILRB4 effector reporter cells (jurkat-LILRB4) (UniProt Q8NHJ6 22-448). Briefly: cell-based or functional assay.
Assay [2] concerns the target T2, Human LILRB4/CD85k/ILT3 Protein (ECD, His Tag), Sino Biological (human, UniProt Q8NHJ6 22-259).
T2 construct: extracellular domain; It is not tied to this bought protein; also called LILRB4 protein; not shown: His tag
Briefly: ELISA, human LILRB4 ECD-His coated, HRP goat anti-human IgG Fc, OD450. (In an ELISA, binding on a coated surface is turned into a signal by an enzyme label.)

Assay [3] addresses T3, Human LILRB1/CD85/ILT2/ILR1 Protein (ECD, His Tag), Sino Biological (human, UniProt Q8NHL6 24-461).
T3 construct: extracellular domain; not shown: His tag
The assay can be described thus: ELISA, LILRB family proteins (His tag) coated, antibody at 10 ug/mL, HRP goat anti-human IgG Fc, OD450.

Assay [4] addresses T4, Human LILRB2/ILT4/LIR-2 Protein (ECD, His Tag), Sino Biological (human, UniProt Q8N423 22-460).
T4 construct: extracellular domain; not shown: His tag
Described as above.

In assay [5] the target is T5, Human LILRB3/LIR3/ILT5/CD85a Protein (ECD, His Tag), Sino Biological (human, UniProt O75022 24-443).
T5 construct: extracellular domain; not shown: His tag
T5 sequence (O75022 24-443): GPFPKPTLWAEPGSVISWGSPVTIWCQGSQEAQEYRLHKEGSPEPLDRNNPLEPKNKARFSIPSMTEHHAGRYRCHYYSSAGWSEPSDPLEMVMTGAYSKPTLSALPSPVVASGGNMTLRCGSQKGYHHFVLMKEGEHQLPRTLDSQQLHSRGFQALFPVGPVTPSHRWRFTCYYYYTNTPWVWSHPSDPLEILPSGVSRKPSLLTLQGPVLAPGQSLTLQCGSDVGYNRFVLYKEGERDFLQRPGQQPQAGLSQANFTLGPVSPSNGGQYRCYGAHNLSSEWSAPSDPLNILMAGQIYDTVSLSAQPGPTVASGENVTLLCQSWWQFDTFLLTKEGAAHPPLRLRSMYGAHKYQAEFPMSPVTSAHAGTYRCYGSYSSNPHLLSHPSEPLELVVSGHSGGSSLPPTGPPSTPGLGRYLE
The assay is described as above.

For assay [6], the target named is T6, Human LILRB5/CD85c/LIR-8 Protein (ECD, His Tag), Sino Biological (human, UniProt O75023 24-458).
T6 construct: extracellular domain; not shown: His tag
T6 sequence (O75023 24-458): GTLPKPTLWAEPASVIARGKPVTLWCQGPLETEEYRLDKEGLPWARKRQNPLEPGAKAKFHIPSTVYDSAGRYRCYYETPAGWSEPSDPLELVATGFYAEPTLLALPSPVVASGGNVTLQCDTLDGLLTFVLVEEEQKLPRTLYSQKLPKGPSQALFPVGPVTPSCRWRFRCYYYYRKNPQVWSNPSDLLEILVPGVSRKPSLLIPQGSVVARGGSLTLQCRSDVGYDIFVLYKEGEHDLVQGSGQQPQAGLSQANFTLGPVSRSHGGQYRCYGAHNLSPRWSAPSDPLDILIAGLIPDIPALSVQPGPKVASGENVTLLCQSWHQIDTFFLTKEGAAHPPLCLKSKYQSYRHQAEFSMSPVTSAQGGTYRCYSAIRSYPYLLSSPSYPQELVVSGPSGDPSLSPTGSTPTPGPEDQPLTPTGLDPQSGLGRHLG
Described as above.

The target in assay [7] is T1, LILRB4 on LILRB4 effector reporter …. Briefly: cell-based or functional assay. The source holds these as a separate data set.
Assay [8] has the same target. The assay can be described thus: cell-based or functional assay. This is another data set of the same source.
For assay [9], the target named is human LILRB4 on 293T-hLILRB4 cells (human, UniProt Q8NHJ6 22-448). The assay can be described thus: cell-based or functional assay.
Assay [10] addresses T7, LILRB4 on human mononuclear leukemia cells THP-1 (human, UniProt Q8NHJ6 22-448).
T7 construct: whole, on cells; The protein is endogenous to the cells; also called LILRB4 positive cells THP-1
Briefly: flow cytometry on THP-1 cells, PE goat anti-human IgG Fc, MFI. For orientation: A flow cytometer gives signals particle by particle.

The target of assay [11] is T2, Human LILRB4/CD85k/ILT3 Protein (ECD, …). The assay can be described thus: ELISA, human LILRB4 ECD-His coated, HRP goat anti-human IgG Fc, OD450. This is another data set of the same source.
Assay [12] deals with T8, LILRB4 (Beijing ACROBiosystems, article number LI4-H52H7, 6xHis label) (human, UniProt Q8NHJ6 22-259).
T8 construct: Analyte (mobile phase) in the BIACORE 8K assay; also called Human LILRB4; not shown: 6xHis label
Briefly: SPR, BIACORE 8K; antibody captured on Protein A chip, LILRB4-6xHis as analyte. Here is the method:
A BIACORE 8K biomacromolecule interactor (GE Company) was adopted to analyze the affinity of an antibody. A Series S Sensor Chip Protein A Chip (GE Company) was used for capturing an antibody to be detected, the concentration of the antibody to be detected was set to be 15 μg/mL, and the sample was fed at a speed of 10 μl/min until RU=500; LILRB4 (Beijing ACROBiosystems, article number: LI4-H52H7, 6×His label, and the theoretical molecular weight: 28.2 Kda) was used as a mobile phase, 6 concentration gradients (0.0977 nM-200 nM) were used, and the binding time was 180 sec; and the dissociation time was 300 sec. The result of the affinity of the antibody to be detected is as set forth in follows: […]
(Surface plasmon resonance follows binding to a sensor surface in real time, without labels.)

Where two headings read alike, the source gives them in different places.

In general, EC50 (read off the curve) refers to the concentration at which the effect is half-maximal. As usually defined, the Kd is a measure of binding affinity in units of concentration. Higher therefore signals a looser complex. The term koff denotes the first-order rate constant of dissociation. As a reminder, the kon is a measure of how fast the partners come together.

T4 sequence (Q8N423 22-460): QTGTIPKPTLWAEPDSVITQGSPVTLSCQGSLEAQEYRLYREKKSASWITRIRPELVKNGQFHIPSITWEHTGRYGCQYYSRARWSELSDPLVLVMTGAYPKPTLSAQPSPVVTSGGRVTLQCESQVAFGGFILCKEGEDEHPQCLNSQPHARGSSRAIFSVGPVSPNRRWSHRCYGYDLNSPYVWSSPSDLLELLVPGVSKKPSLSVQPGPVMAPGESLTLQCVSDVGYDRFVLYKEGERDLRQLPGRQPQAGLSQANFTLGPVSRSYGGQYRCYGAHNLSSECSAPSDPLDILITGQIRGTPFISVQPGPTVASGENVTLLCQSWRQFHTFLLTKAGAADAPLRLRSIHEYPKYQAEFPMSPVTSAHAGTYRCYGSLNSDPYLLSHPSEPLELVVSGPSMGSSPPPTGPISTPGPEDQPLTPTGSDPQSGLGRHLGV
T3 sequence (Q8NHL6 24-461): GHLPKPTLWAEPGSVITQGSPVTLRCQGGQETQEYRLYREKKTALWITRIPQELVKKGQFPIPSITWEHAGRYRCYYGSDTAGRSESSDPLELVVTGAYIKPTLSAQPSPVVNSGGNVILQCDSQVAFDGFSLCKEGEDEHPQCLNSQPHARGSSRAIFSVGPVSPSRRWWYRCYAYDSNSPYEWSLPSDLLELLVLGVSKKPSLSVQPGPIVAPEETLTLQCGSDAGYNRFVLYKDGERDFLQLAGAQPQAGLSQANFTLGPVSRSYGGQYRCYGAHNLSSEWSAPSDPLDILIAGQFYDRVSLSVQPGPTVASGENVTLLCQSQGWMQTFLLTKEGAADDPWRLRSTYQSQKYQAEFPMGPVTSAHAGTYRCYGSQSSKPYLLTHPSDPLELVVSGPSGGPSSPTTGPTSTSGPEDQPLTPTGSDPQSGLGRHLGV

B1: chimeric antibody 1A2-7 (antibody, V domains shown)
VH: QVQLQQPGAELVKPGASVKLSCKASGYTFTSYWMHWVKQRPGQGLEWIGEINPSNGRTNYNEKFKSKATLTVDKSSSTAYMQLNSLTSEDSAVYYCARDRYDEGNAMDYWGQGTSVTVSS
VL: DIVMTQTTSSLSASLGDRVTISCRASQDITNYLNWYQQKPDGTVKLLIYYTSRLHSGVPSRFSGSGSGTDYSLTISNLEQEDIATYFCQQGDTLPRTFGGGTKLEIK
Turning to B1, the “EC50 (read off the curve); luciferase RLU, blocking of APOE” value (“EC50 (read off the curve) … of APOE” for short) in [1] is approximately 0.03 ng/mL. Also, the 50% effective concentration (EC50 (read off the curve)) in assay [2] was approximately 30 ng/mL. Also, the binding result in assay [3], in [4], in assay [5] and in assay [6] was “no binding (tested: 10 ug/mL)” throughout.

B2: chimeric antibody 3G9-1 (antibody, V domains shown)
VH: QVQLQQPGAELVKPGASVKLSCKASGYTFTSYWMHWVKQRPGQGLEWIGEINPSNGRTNYNEKFKSKATLIVDKSSSTAYMQLSSLTSEDSAVYYCARGIYYGYDYAMDYWGQGTSVTVSS
VL: DIQMTHTTSSLSASLGDRVTISCRASQDISNYLNWYQQKPDGTVKLLIYYTSRLHSGVPSRFSGSGSGTDYSLTISNLEQEDIATYFCQQGNTLPPTFGGGTKLEIK
notes: Full chains are not tied by name
With B2, in assay [2], the “EC50 (read off the curve)” value was approximately 20 ng/mL. In addition, the binding result in [3], in assay [4], in assay [5] and in assay [6] was “no binding (tested: 10 ug/mL)” in each case.

B3: chimeric antibody 3A2-18 (antibody, V domains shown)
VH: EVQLQQPGAELVKPGASVKLSCKASGYTFTSYWMHWVKQRPGQGLEWIGEINPSNGRTNYNEKFKSKATLTVDKSSSTAYVQLNSLTSEDSAVYYCARDRYDEGNAMDYWGQGTSVTVSS
VL: DIVMTQTTSSLSASLGDRVTISCRASQDITNYLNWYQQKPDGTVKLLIYYTSRLHSGVPSRFSGSGSGTDYSLTISNLEQEDIATYFCQQGDTLPRTFGGGTKLEIK
notes: as for B2
As for B3, in assay [7], the “EC50 (read off the curve) … of APOE” value was approximately 10 ng/mL. The concentration for a half-maximal effect (EC50 (read off the curve)) in assay [2] is approximately 30 ng/mL. Also, the binding result in [3], in assay [4], in assay [5] and in [6] was “no binding (tested: 10 ug/mL)” throughout.

B4: chimeric antibody 5E11-2 (antibody, V domains shown)
VH: EVKLEESGGGLVQPGGSMKLSCAASGFTFSDAWMDWVRQSPEKGLEWVAEIRSKPNNHATYYAESVKGRFTISRDDSKSSVYLQMNSLRAEDTGIYYCTRTTDYSMDYWGQGTSVTVSS
VL: DIQMTQSPASLAVSLGQRATISCRASQSVSASSYSYMHWYQQKPGQPPKLLIKYASNLQSGVPARFSGSGSGTDFTLNIHPVEEEDSATYYCQHSWEIPRTFGGGTKLEIK
notes: as for B2
For the molecule B4, the concentration giving a half-maximal response (EC50 (read off the curve)) in assay [2] was approximately 50 ng/mL. Further, the binding result in assay [3], in [4], in [5] and in assay [6] was “no binding (tested: 10 ug/mL)” each time.

B5: humanized antibody RB4-G1-018 (antibody, human IgG1, kappa, V domains shown)
VH: QVQLVQSGAEVKKPGASVKVSCKASGYTFTSYWMHWVRQAPGQGLEWIGEINPSNGRTNYNEKFKSRATLTVDKSTSTAYMELSSLRSEDTAVYYCARDRYDEGNAMDYWGQGTTVTVSS
VL: DIQMTQSPSSLSASVGDRVTITCRASQDITNYLNWYQQKPGKAPKLLIYYTSRLHSGVPSRFSGSGSGTEYTLTISSLQPDDFATYYCQQGDTLPRTFGQGTRLEIKR
In the case of B5, the “EC50 (read off the curve) … of APOE” value in assay [8] is approximately 10 ng/mL. For the same molecule, the “EC50 (read off the curve); ADCC reporter induction multiple” value (“EC50 … ADCC reporter induction multiple” for short) in assay [9] was approximately 60 ng/mL. Besides, the “EC50 (read off the curve)” value in [10] is approximately 30 ng/mL. Also, the “EC50 (read off the curve)” value in [11] is approximately 30 ng/mL. Moreover, in assay [12], the dissociation constant (Kd) is 2.81 nM, the koff came out at 0.00433 s⁻¹ and the kon stood at 1.54e+06 M⁻¹ s⁻¹.

B6: humanized antibody RB4-G1-022 (antibody, human IgG1, kappa, V domains shown)
VH: QVQLVQSGAEVKKPGASVKVSCKASGYTFTSYWMHWVRQAPGQGLEWIGEINPSNGRTNYNEKFKSRATLTVDKSTSTAYMELSSLRSEDTAVYYCARDRYDEGNAMDYWGQGTTVTVSS
VL: DIQMTQSPSSLSASVGDRVTITCRASQDITNYLNWYQQKPGKAPKLLIYYTSRLHSGVPSRFSGSGSGTDYTFTISSLQPEDIATYYCQQGDTLPRTFGQGTRLEIKR
As to B6, in assay [8], the “EC50 (read off the curve) … of APOE” value is approximately 20 ng/mL. For the same molecule, in assay [9], the “EC50 … ADCC reporter induction multiple” value is approximately 50 ng/mL. For the same molecule, the “EC50 (read off the curve)” value in assay [10] was approximately 40 ng/mL. Besides, the “EC50 (read off the curve)” value in assay [11] is approximately 30 ng/mL. Moreover, in [12], the Kd turned out to be 2.33 nM, the koff worked out at 0.00418 s⁻¹ and the association rate constant (kon) is 1.8e+06 M⁻¹ s⁻¹.

B7: humanized antibody RB4-G1-019 (antibody, human IgG1, kappa, V domains shown)
VH: QVQLVQSGAEVKKPGASVKVSCKASGYTFTSYWMHWVRQAPGQGLEWMGEINPSNGRTNYNEKFKSRVTLTVDKSTSTVYMELSSLRSEDTAVYYCARDRYDEGNAMDYWGQGTTVTVSS
VL: DIQMTQSPSSLSASVGDRVTITCRASQDITNYLNWYQQKPGKAPKLLIYYTSRLHSGVPSRFSGSGSGTEYTLTISSLQPDDFATYYCQQGDTLPRTFGQGTRLEIKR
As for B7, the “EC50 (read off the curve) … of APOE” value in assay [8] was approximately 10 ng/mL. Besides, the “EC50 … ADCC reporter induction multiple” value in assay [9] was approximately 60 ng/mL. Also, in assay [10], the concentration giving a half-maximal response (EC50 (read off the curve)) is approximately 30 ng/mL. For the same molecule, in [11], the “EC50 (read off the curve)” value was approximately 30 ng/mL. In assay [12], this molecule yielded a dissociation constant (Kd) of 2.77 nM, a dissociation rate constant (koff) of 0.00343 s⁻¹ and an on-rate (kon) of 1.24e+06 M⁻¹ s⁻¹.

B8: humanized antibody RB4-G1-020 (antibody, human IgG1, kappa, V domains shown)
VH: QVQLVQSGAEVKKPGASVKVSCKASGYTFTSYWMHWVRQAPGQGLEWMGEINPSNGRTNYNEKFKSRVTMTRDTSTSTVYMELSSLRSEDTAVYYCARDRYDEGNAMDYWGQGTTVTVSS
VL: DIQMTQSPSSLSASVGDRVTITCRASQDITNYLNWYQQKPGKAPKLLIYYTSRLHSGVPSRFSGSGSGTEYTLTISSLQPDDFATYYCQQGDTLPRTFGQGTRLEIKR
In the case of B8, in assay [8], the “EC50 (read off the curve) … of APOE” value was approximately 20 ng/mL. In assay [9], the “EC50 … ADCC reporter induction multiple” value is approximately 60 ng/mL. Moreover, in [10], the “EC50 (read off the curve)” value was approximately 30 ng/mL. For the same molecule, the “EC50 (read off the curve)” value in assay [11] was approximately 30 ng/mL. In assay [12], this molecule yielded a Kd of 3.29 nM, a koff of 0.00834 s⁻¹ and a kon of 2.53e+06 M⁻¹ s⁻¹.

Values taken from patent publication US20260250379A1 (HANGZHOU SUMGEN BIOTECH, published 2026).
